The source of these data is publication PMC5127643, “Dynamic control of Hsf1 during heat shock by a chaperone switch and phosphorylation” (eLife, 2016).

What all share (settings): both partners purified
Experiment [1] has as its target T1, Hsf1-6xHIS phosphorylated in vitro by casein kinase II (S. cerevisiae, UniProt P10961 1-833, phosphorylated by casein kinase II (mobility shift); sites not stated).
T1 construct: Full-length wild type HSF1 cloned into pET32b with a C-terminal 6x-HIS tag; also called rHsf1 pre-incubated with ATP and active CKII; phosphorylated Hsf1; source: E. coli BL21(DE3), purified (Ni-NTA agarose), then phosphorylated in vitro with casein kinase II (NEB); not shown: 6xHIS, C-terminal, kept
T1 sequence (looked up): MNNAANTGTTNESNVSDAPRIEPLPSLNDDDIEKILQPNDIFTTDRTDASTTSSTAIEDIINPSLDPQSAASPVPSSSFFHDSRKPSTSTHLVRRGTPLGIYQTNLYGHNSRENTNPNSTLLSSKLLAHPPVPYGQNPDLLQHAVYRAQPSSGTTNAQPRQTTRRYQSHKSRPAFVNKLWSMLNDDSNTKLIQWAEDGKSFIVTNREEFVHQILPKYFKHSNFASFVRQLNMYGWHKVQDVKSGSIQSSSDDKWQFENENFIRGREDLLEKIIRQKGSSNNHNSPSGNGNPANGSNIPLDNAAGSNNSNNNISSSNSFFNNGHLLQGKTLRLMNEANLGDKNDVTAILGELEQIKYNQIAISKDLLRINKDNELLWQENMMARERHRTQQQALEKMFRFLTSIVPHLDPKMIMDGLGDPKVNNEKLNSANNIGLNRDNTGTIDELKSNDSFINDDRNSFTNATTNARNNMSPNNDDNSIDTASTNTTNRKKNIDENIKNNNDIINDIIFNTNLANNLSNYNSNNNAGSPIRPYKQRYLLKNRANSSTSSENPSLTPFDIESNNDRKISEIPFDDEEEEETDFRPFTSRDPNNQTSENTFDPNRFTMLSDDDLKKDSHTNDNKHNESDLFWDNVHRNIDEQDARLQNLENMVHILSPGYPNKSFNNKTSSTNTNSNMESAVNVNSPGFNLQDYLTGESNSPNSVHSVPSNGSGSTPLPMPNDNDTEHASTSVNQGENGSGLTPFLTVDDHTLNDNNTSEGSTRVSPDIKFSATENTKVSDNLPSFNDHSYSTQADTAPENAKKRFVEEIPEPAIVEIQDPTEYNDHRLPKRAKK
The experiment is described as follows: co-IP; anti-FLAG IP of recombinant proteins with 3xFLAG-rSsa2 as bait; rHsf1 pre-incubated with ATP alone, ATP and active CKII, or ATP and boiled CKII; Western blot anti-HIS for rHsf1.

A further experiment concerns the target T2, Hsf1-6xHIS (S. cerevisiae, UniProt P10961 1-833).
T2 construct: Full-length wild type HSF1 cloned into pET32b with a C-terminal 6x-HIS tag; pET32b normally adds N-terminal thioredoxin, His and S tags; Plasmids are in Supplementary file 2; also called rHsf1; recombinant Hsf1; source: E. coli BL21(DE3), purified (Ni-NTA agarose, imidazole elution); not shown: 6xHIS, C-terminal, kept
T2 sequence (looked up): T1 sequence (looked up)
Described as above.

Another experiment has as its target T3, 3xFLAG-Hsf1 (S. cerevisiae, UniProt P10961 1-833).
T3 construct: The text prints 3xFLAG-Hsf1 and the legend prints rHsf1-3xFLAG, so the tag end is left open; also called rHsf1-3xFLAG; rHsf1; source: construct not described in the methods
T3 sequence (looked up): T1 sequence (looked up)
The experiment is described as follows: co-IP; anti-FLAG IP of recombinant proteins with rHsf1-3xFLAG as bait, Western blot anti-HIS for rSsa2; IP buffer alone or with 1 mM ATP.

The next experiment addresses T4, Aβ42 peptide (UniProt P05067 672-713).
T4 construct: also called hydrophobic peptide
The experiment is described as follows: co-IP; anti-FLAG IP of recombinant proteins with rHsf1-3xFLAG as bait, in the presence of five-fold molar excess (25 µM) of Aβ42 peptide as competitor.

T4 sequence (P05067 672-713): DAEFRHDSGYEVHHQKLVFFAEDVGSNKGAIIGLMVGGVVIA

B1: 6xHIS-3xFLAG-Ssa2 (natural protein)
chain: not shown
notes: Full length SSA2 cloned into pET32b with an N-terminal 6xHIS-3xFLAG tag; pET32b normally adds N-terminal thioredoxin, His and S tags; Plasmids are in Supplementary file 2; also called FLAG-rSsa2; 3xFLAG-rSsa2; source: E. coli BL21(DE3), purified (Ni-NTA agarose, imidazole elution); not shown: 6xHIS, N-terminal, kept; 3xFLAG, N-terminal, kept
As to B1, the binding result (in experiment [1]; with Hsf1-6xHIS) was “binds” each time.

B2: recombinant Ssa2 (HIS-tagged, tags reversed) (natural protein)
chain: not shown
notes: also called rSsa2; source: construct not described in the methods
Turning to B2, the binding result with 3xFLAG-Hsf1 and with Aβ42 peptide was “binds” throughout.
